The DeepSol protein solubility set

Test: soluble on expression in E. coli; label from the status in PepcDB or PDB records

## MSLDQFDCKVSATGGWDCSPLQNANANLPPRPAHTATSVSTAAAGSSVSGSGGETVEAEPTQRLVTESGGRALKSRSADYSHLDWIPREKLTAAQLAEIGPYCGGSYIEPVRPGMDDGAPSDESPTYVSAKASRYEQEKQIATLAGDVVLRQGSMQVEGDEANLHQLENRGELVGNVKLRDKGMLVVGDHAQVQLDNGEAQVDNAEYVIHKAHARGSALYAKRSENAIIMLKDGTYTRCEPSSNAWTLKGNNVKLNPATGFGTATNATLRVKDFPVFYTPYIYFPIDDRRQSGFLPPSFSSTSDTGFTLVTPYYFNLAPNYDATLYPRYMAKRGMMLEGEFRYLTHSSEGIVNAAYLNDKDDHREGFPDYSKDRWLYGLKNTTGLDSRWLAEVDYTRISDPYYFQDLDTDLGVGSTTYVNQRGTLTYRGDTFTGRLNAQAYQLATTTDVTPYDRLPQITFDGFLPYNPGGMQFTYGTEFVRFDRDLDENIYFNDDGSIRGKRPDASLQGLARATGDRMHLEPGMSLPMTRSWGYVTPTLKYLYTKYDLDLDSQGKTDLNKRDESFDSNQDRSLPLVKVDSGLYFDRDTTFAGTPFRQTLEPRAMYLYVPYKDQDSLPVFDTSEPSFSYDSLWRENRFTGKDRIGDANQLSLGVTSRFIEENGFERASISAGQIYYFRDRRVQLPGLTEKDLKRLNLDPSGLDNDSWRSPYAFAGQYRFNRDWRINSDFNWNPNTSRTESGSAIFHYQPEVDPGKVVNVGYRYRADARRFDSSRGTFRYGNENDIIKQHDFSVIWPLVPQWSVLARWQYDYNKNRTLEAFGGFEYDSCCWKLRLINRYWLDVDDDAFLVQSEKADRGIFLQIVLKGLGGIVGNKTEMFLDKGIQGYRQREEGHHHHHH
  soluble on expression in E. coli: not soluble

## MIKNILILSSNNTGHGHKSITESLLEQFSHYPDVNVHVIDGFTLAGNFGLRIGKLYGSVTRNAKELWKLVWELSLKKPSLLNDFTEVAIKDNFLKLICNIKPDLILSVHPNFNGSVLNILEDYNIKVPFVTLLADIVSITPLWADPRADYIICPSKESKFKCLEFGVSESKLIETGFPVRQKFLKLEHHHHHH
  soluble on expression in E. coli: not soluble

## MTGLYIHIPFCATRCSYCDFYSQTNSALRSEYIQALIAEMSIRRAEVTDTIGTLYFGGGTPSLLSPQEIGRIIEQVYRLFSFSSDAEITLEANPDDLNTSYVQELRTLPINRISMGAQSFHDEDLHFLNRRHNARQVLEAVDTCRNAGLTNLSIDLIYGLPGQTPARWQENISAVLALSPPHLSAYHLIYEEGTPLTRLLHAGKVREVDEEVSLELFRMLREQLTGAGYEHYEISNFARSGYHSCHNSSYWQDTPYLGLGPSAHSFDGRRTRRSNPSDIRRYIVSMAAGKPLFTEEILTDNDRYNEVVMTRLRTACGLSPDQIGHLFGKESAERCIRTAAPFIRDGLLHEEADGRIRLTEKGIFLSDRIISEFFIV
  soluble on expression in E. coli: not soluble

## MGELIEGVWHPNWYDTASNGGRFVRSRARFRNWITADGSPGPSGEGGFPAEAGRYHLYVAHACPWAHRTMIFRALKDLAPLIDVSVVHPEMLEDGWTFDRSFPGATGDRLYGLAFLREIYLKADPGISARVTVPVLWDRKRETIVSNESAEIIRMFNAAFDHLTGNRVDFLPEGDLAEIDRLNDRIYGTVNNGVYRAGFATTQEAYDEAAAPLFETLDWLEERLATRRYLVGDRLTEADWRLFTTLVRFDKVYHTHFKCNRRQIVQYPNLWGWLRELWQVPGVAETVHFDHIVRHYYFSHDTINPHRIVPLTPDPDFAAPHGRDQLFQASRLR
  soluble on expression in E. coli: not soluble

## SSESESGGDFHEMREPRIEKVVVHMGIGHGGRDLANAEDILGEITGQMPVRTKAKRTVGEFDIREGDPIGAKVTLRDEMAEEFLQTALPLAELATSQFDDTGNFSFGVEEHTEFPSQEYDPSIGIYGLDVTVNLVRPGYRVAKRDKASRSIPTKHRLNPADAVAFIESTYDVEVSE
  soluble on expression in E. coli: soluble

## QDSTQNLIPAPPLISVPLQPGFWTERFQGRWFVVGLAGNAVQKERQSRFTMYSTIYELQEDNSYNVTSILVRGQGCRYWIRTFVPSSRPGQFTLGNIHSYPQIQSYDVQVADTDYDQFAMVFFQKTSENKQYFKVTLYGRTKGLSDELKERFVSFAKSLGLKDNNIVFSVPTDQCIDN
  soluble on expression in E. coli: soluble

## MGSDKIHHHHHHEDEKSPVMELQKASAFEPFSQSDFTFNDENAAAEFPEIKWTAADYGVKAVVNYDVTLTNDANAKTVLLGETGTTSLKFTNGQMNTMMAKVGAYPGQTYNFTITLTSKAYDMTADPASNSITFKATLFDPNAVDWKFAYVAVGYPDWDYTNAYLLGDPDGDGVYQGYANFDADGVSYAIIDGSDLTKILAKDQTAAKKGFYGIKVDAEGKVEQTEPLVWGVVGDATSGGWDKDTQMDYDATTRLWTVTTSLLDKEFKFRSNNNWDSDNYGAVSGKESELEGELVAGPNNFKVLKASPYVITMNLTNAGKYSYSMVETTIELSSAEMALPGSYQGWDATKDDCYKVQSAARDFIYTGTFYFDADTKFKFWDAGVWIGMMGPISWDEAKNIGTFVLMPSDGDNIKIETAGYYRVGADMKKLTASLTKTGWEIIGDATPGGWDKGTVMNYDPATKLWSVDVTLVAGEMKFRWDGAWTVNLGGSLGALTQDGANMKVTAGAYTIVLNPDAKTATMTKK
  soluble on expression in E. coli: not soluble

## GELMPPQLQNGLNLSAKVVQGSLDSLPQAVREFLENNAELCQPDHIHICDGSEEENGRLLGQMEEEGILRRLKKYDNCWLALTDPRDVARIESKTVIVTQEQRDTVPIPKTGLSQLGRWMSEEDFEKAFNARFPGCMKGRTMYVIPFSMGPLGSPLSKIGIELTDSPYVVASMRIMTRMGTPVLEALGDGEFVKCLHSVGCPLPLQKPLVNNWPCNPELTLIAHLPDRREIISFGSGYGGNSLLGKKCFALRMASRLAKEEGWLAEHMLVLGITNPEGEKKYLAAAFPSACGKTNLAMMNPSLPGWKVECVGDDIAWMKFDAQGHLRAINPENGFFGVAPGTSVKTNPNAIKTIQKNTIFTNVAETSDGGVYWEGIDEPLASGVTITSWKNKEWSSEDGEPCAHPNSRFCTPASQCPIIDAAWESPEGVPIEGIIFGGRRPAGVPLVYEALSWQHGVFVGAAMRSEATAAAEHKGKIIMHDPFAMRPFFGYNFGKYLAHWLSMAQHPAAKLPKIFHVNWFRKDKEGKFLWPGFGENSRVLEWMFNRIDGKASTKLTPIGYIPKEDALNLKGLGHINMMELFSISKEFWDKEVEDIEKYLVDQVNADLPCEIEREILALKQRISQM
  soluble on expression in E. coli: soluble

## MLQPPFNIKVTNITLTTAVVTWQPPILPIEGILVTFGRKNDPSDETTVDLTSSITSLTLTNLEPNTTYEIRIVARNGQQYSPPVSTTFTTGSLEHHHHHH
  soluble on expression in E. coli: soluble

## MSLKRTEISSLGEFGLIRHLTDCVRLKNPGTLKGIGDDAAVISFDEGMKALVTTDMLLEGIHFDLTYTPLKHLGYKSAIVNFSDIYAMNGTPRQLTVSIGVSARFSVEDIEQIYQGILTACDAYGVDLVGGDTSASLTGLCLSLTCIGEAREEEIVYRSGAKPTDLICVSGDLGAAYMGLQLLEREKAVYQGEKDFAPDFAGHEYILERQLKPEARKDIVEELRSAGIKPTAMMDISDGLSSELLHIAHAGKVGVRIYDDKLPIDYQTAAMAEEFNMNLSTAALNGGEDYELLFTVPLTRLDDIQRIEGIHLIGHITEEADGHLLVARDGTEITLVAQGWNAAKALNGEGHHHHHH
  soluble on expression in E. coli: soluble

## MGSDKIHHHHHHMDILRKVAEIHGTPTYVYFEETLRKRSRLVKEVFEGVNLLPTFAVKANNNPVLLKILREEGFGMDVVTKGELLAAKLAGVPSHTVVWNGNGKSRDQMEHFLREDVRIVNVDSFEEMEIWRELNPEGVEYFIRVNPEVDAKTHPHISTGLKKHKFGIPLEDLDSFMERFRSMNIRGLHVHIGSQITRVEPFVEAFSKVVRASERYGFEEINIGGGWGINYSGEELDLSSYREKVVPDLKRFKRVIVEIGRYIVAPSGYLLLRVVLVKRRHNKAFVVVDGGMNVLIRPALYSAYHRIFVLGKQGKEMRADVVGPLCESGDVIAYDRELPEVEPGDIIAVENAGAYGYTMSNNYNSTTRPAEVLVRENGRISLIRRRETEMDIFKDVVM
  soluble on expression in E. coli: not soluble

## MGSDKIHHHHHHMAKTPANKNDQTKDGRFEEALWDAANKLRGSVESSEYKHIVLSLIFLKFISDTFEQQRQKLIDTGYEKHIDMVQAYTKDNVFYLPAESRWSFIQQNAKQEDIALKIDTALSTIEKTNQSLKGALPDNYFSRLGLTASKLAALIDVVNNIDTIGNPEEDTVGRVYEYFLGKFAATEGKGGGEFYTPKSVVNLIAEMVEPYQGKIYDPCCGSGGMFVQSIKFIESHHGNTKDVSIYGQEYTSTTYKLAKMNLAIRGISSNLGDVAADTFFKDQHEDLKADFIMANPPFNQKDWRASDELVDDPRWAGYPTPPTGNANYAWILHMISKLSEHGTAGFVLANGSMSTTTSGEGEIRQQIIENDLVDCMIALPGQLFYTTQIPVCLWFINKDKQAKSADSKARGLRNRSGETLFIDARAIGSMISRTNKELTKDDIEAIAKTYHAWRGEKEAGGYEAYTDEAGYCKSATLDDMKANDYVLTPGRYVGAAAIEDDGISFETKMLELSQTLYAQMQASEKLDATIRQNLEVLGYGE
  soluble on expression in E. coli: not soluble

## MGSDKIHHHHHHMRIIEASAVHAAVRQMILAANRVLGDDVYAALKSSMESETSASGREVLRQLLENADLAASGGLALCQDTGAAVFFVEMGEDVRLGGGSLQHVLNSAMAQAYEEGCLRKSMCHPLTRCNTGDNRPAIVHTELVEGDRLTIRYMAKGGGSENMSRCTMLTPAQGWQGIKEFVVRRMAEAGPNPCPPTIVGVGIGGTFDLAPALAKRALFRRLDDVHPDAEVAAMETELLDALNALGIGPMGLGGRTTCLAVKIALHPCHIASLPVAVNVQCHSARHREVIL
  soluble on expression in E. coli: not soluble

## MGSDKIHHHHHHMTFRGGNTGAKHAVVVGSGPNGLTTAAVLAKAGWQVDVYEAAPTPGGAARSESVLGEGTISDLGAAGHPFGVASPAFHYLGLEDHGLEWAYSPFAMAHPLDYGRAGLLETSLPETAKKLGPDARRWKNLHQGLTKNIDKHLANLLGPVLKWPAHPIRMAKFGPFALLPAKRLASAAFETEEARSLFIGSAMHSVTPPHKPMTASLGLLFGALGMSRGWPVAVGGSGRIVDALVNVINHHGGTIHCDSQIDSLSQFRDTDAIILNQTPSQVLKLKGTDLNAGLPQRMSTWKHGPSSYKVDYLLDGPIPWSNPQVGQATTVHVGGSSEEIAFAEAEVAAGRMPERPFIILCQQQVADPSRAREGRHVVWAYAHVPRGFVDKRAALLITAQIERFAPGFRDRIVHSVDTNAEDLEAWNPNLVGGDITAGSALLRRMPTKIGEKTYMASASNAPGGGVHGMPGWWAAQAVLADHR
  soluble on expression in E. coli: not soluble

## MGSDKIHHHHHHVNFRDLGGYPVGDGRRTRWGRLFRSDSLGALTEEDLALVAALDLYRVVDFRLPHERELHPNRLPVGAGPKVTEIGFWPDGVPEMLKALRELRIDAAGIERAVTGHYRRYAVHHRAEYRRMLEAVEEAAGRPTLIHCVSGKDRTGFGAAVILMALGVPRTVIVEDYLLTNDCRRDIGHLMPSGTTESVAEAFTAARPAYIEAAFESIDTAFGGIDDYLAHGLGFGEQRLQRLRECLTEPATGSASLLSPRRAGNP
  soluble on expression in E. coli: not soluble

## MSFAPMLLATINNSIGNKDKHVSLEYLIGLFMDKKTTNLSNTDKYIIGTIQTEALEQEIEWFSQDYHIPMENILHVLSINPYQ
  soluble on expression in E. coli: not soluble

## MAGYALKRLMTEYKELTTRPPEGIIAAPIDEDNFFEWECLITGPEETCFANGVFPARITFPQDYPLSPPKMRFTCGIFHPNIYADGRVCISILHAPGDDPTGYELSNERWSPVQSIEKILLSVVSMLAEPNDESPANVSAAKMWREDRAQFEKIADSLVRKTLCLPASEV
  soluble on expression in E. coli: not soluble

## MAITINIYYSGTNGGAREFAKEMIASGIVEAIRAEKGNSRYEYFFPMDDEETVLLIDSWTDQEALDKHHASPMMTRITELREKYDLHMKVERYVSDVTDPLTKDAAFIRK
  soluble on expression in E. coli: not soluble
